The values that follow come from patent publication US20250313634A1 (WUXI BIOLOGICS SHANGHAI, published 2025).

Experiment [1] concerns the target T1, PD-L2 expressed on transfected CHO cells (Homo sapiens (Human), UniProt Q9BQ51 20-273).
T1 construct: also called PD-L2 of PD-1 ligand family
T1 sequence: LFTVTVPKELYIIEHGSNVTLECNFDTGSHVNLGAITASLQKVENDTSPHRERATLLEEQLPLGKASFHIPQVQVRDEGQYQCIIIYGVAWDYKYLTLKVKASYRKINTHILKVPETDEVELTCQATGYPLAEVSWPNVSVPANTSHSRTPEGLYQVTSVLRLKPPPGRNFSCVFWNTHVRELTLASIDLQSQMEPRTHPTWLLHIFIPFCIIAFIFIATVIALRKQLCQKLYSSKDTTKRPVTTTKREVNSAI
The experiment in a line: FACS on PD-L2 transfected CHO-K1 cells, single bar, antibody concentration not shown. As for the experimental part: 3.8 Cross-family binding assay by FACS: to examine the cross-family binding activity of the fully human antibodies, cells lines that express PD-L2 were stained with the fully human antibodies, followed by 2nd antibody staining with FITC conjugated goat anti-human IgG Fc. PD-L1 expressing cells were used as positive control. Corresponding parental cell lines were used as negative controls. The stained cells were analyzed by using a BD Biosciences FACSCanto II and FlowJo Version software.
CHO cells transfected with PD-L1 or PD-L2 were stained with fully human PD-L1 antibodies and analysis by FACS.

Experiment [2] addresses T2, hPD-L1_ECD.His point mutant R125A (human, UniProt Q9NZQ7 19-238).
T2 construct: extracellular domain
Put plainly: capture ELISA on coated 1.14.4; relative to silent alanine substitutions. The protocol: (§1) After interacting with the supernatant that contains quantified PD-L1 mutant or human/mouse PD-L1_ECD.His protein (Sino Biological, China), HRP conjugated anti-His antibody (1:5000; Rockland Immunochemicals, Pottstown, PA) was added as detection antibody. Absorbance was normalized according to the average of control mutants. After setting an additional cutoff to the binding fold change (<0.55), the final determined epitope residues were identified.
(§2) The observed binding reductions most probably resulted from the instability or even collapse of hPD-L1 structure after alanine substitutions. After setting an additional cutoff to the binding fold change (<0.55), the final determined epitope residues were listed in Table 3.
On the technique in general: ELISA stands for enzyme-linked immunosorbent assay.

The target in experiment [3] is T3, hPD-L1_ECD.His point mutant F191A (human, UniProt Q9NZQ7 19-238).
T3 construct: extracellular domain
The experiment is described as above. The protocol:
as §1, §2

The target of experiment [4] is T4, hPD-L1_ECD.His point mutant P43A (human, UniProt Q9NZQ7 19-238).
T4 construct: extracellular domain
Described as above. As for the experimental part: as §1, §2

Experiment [5] concerns the target T5, hPD-L1_ECD.His point mutant E31A (human, UniProt Q9NZQ7 19-238).
T5 construct: extracellular domain
Described as above. As for the experimental part: as §1, §2

Experiment [6] concerns the target T6, hPD-L1_ECD.His point mutant T37A (human, UniProt Q9NZQ7 19-238).
T6 construct: extracellular domain
The experiment is described as above. The protocol: as §1, §2

Experiment [7] concerns the target T7, hPD-L1_ECD.His point mutant I206A (human, UniProt Q9NZQ7 19-238).
T7 construct: extracellular domain
The experiment is described as above. The protocol:
as §1, §2

The target of experiment [8] is T8, hPD-L1_ECD.His point mutant Q66A (human, UniProt Q9NZQ7 19-238).
T8 construct: extracellular domain
The experiment is described as above. The protocol: as §1, §2

The target in experiment [9] is T9, hPD-L1_ECD.His point mutant M59A (human, UniProt Q9NZQ7 19-238).
T9 construct: extracellular domain
The description is as above. As for the experimental part:
as §1, §2

For experiment [10], the target named is T10, hPD-L1_ECD.His point mutant K25A (human, UniProt Q9NZQ7 19-238).
T10 construct: extracellular domain
Described as above. The protocol:
as §1, §2

The target of experiment [11] is T11, hPD-L1_ECD.His point mutant T102A (human, UniProt Q9NZQ7 19-238).
T11 construct: extracellular domain
The experiment is described as above. The protocol: as §1, §2

The target of experiment [12] is T12, hPD-L1_ECD.His point mutant P216A (human, UniProt Q9NZQ7 19-238).
T12 construct: extracellular domain
The experiment is described as above. As for the experimental part: as §1, §2

In experiment [13] the target is T13, hPD-L1_ECD.His point mutant G95A (human, UniProt Q9NZQ7 19-238).
T13 construct: extracellular domain
The experiment is described as above. The protocol:
as §1, §2

The target in experiment [14] is T14, hPD-L1_ECD.His point mutant L214A (human, UniProt Q9NZQ7 19-238).
T14 construct: extracellular domain
Described as above. The protocol: as §1, §2

The target in experiment [15] is T15, hPD-L1_ECD.His point mutant M115A (human, UniProt Q9NZQ7 19-238).
T15 construct: extracellular domain
The experiment is described as above. As for the experimental part:
as §1, §2

The target of experiment [16] is T16, hPD-L1_ECD.His point mutant T181A (human, UniProt Q9NZQ7 19-238).
T16 construct: extracellular domain
The experiment is described as above. The protocol:
as §1, §2

Experiment [17] addresses T17, hPD-L1_ECD.His point mutant M36A (human, UniProt Q9NZQ7 19-238).
T17 construct: extracellular domain
Described as above. The protocol:
as §1, §2

Experiment [18] addresses T18, hPD-L1_ECD.His point mutant G110A (human, UniProt Q9NZQ7 19-238).
T18 construct: extracellular domain
The experiment is described as above. The protocol:
as §1, §2

The target of experiment [19] is T19, hPD-L1_ECD.His point mutant L74A (human, UniProt Q9NZQ7 19-238).
T19 construct: extracellular domain
The experiment is described as above. As for the experimental part: as §1, §2

Experiment [20] deals with T20, hPD-L1_ECD.His point mutant T203A (human, UniProt Q9NZQ7 19-238).
T20 construct: extracellular domain
The description is as above. The protocol: as §1, §2

In experiment [21] the target is T21, hPD-L1_ECD.His point mutant G33A (human, UniProt Q9NZQ7 19-238).
T21 construct: extracellular domain
The experiment is described as above. The protocol:
as §1, §2

Experiment [22] concerns the target T22, hPD-L1_ECD.His point mutant Y81A (human, UniProt Q9NZQ7 19-238).
T22 construct: extracellular domain
Described as above. The protocol:
as §1, §2

T17 sequence (Q9NZQ7 19-238 M36A): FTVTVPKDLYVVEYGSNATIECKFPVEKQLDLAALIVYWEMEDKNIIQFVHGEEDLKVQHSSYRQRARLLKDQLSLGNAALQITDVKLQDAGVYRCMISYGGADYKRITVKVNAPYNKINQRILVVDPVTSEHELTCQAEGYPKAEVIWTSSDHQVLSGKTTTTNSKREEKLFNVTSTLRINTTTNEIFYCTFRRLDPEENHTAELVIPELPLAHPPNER
T8 sequence (Q9NZQ7 19-238 Q66A): as the sequence (Q9NZQ7 19-238 M36A) above, with A18M, Q48A counted along it
T20 sequence (Q9NZQ7 19-238 T203A): as the sequence (Q9NZQ7 19-238 M36A) above, with A18M, T185A counted along it
T12 sequence (Q9NZQ7 19-238 P216A): as the sequence (Q9NZQ7 19-238 M36A) above, with A18M, P198A counted along it
T7 sequence (Q9NZQ7 19-238 I206A): as the sequence (Q9NZQ7 19-238 M36A) above, with A18M, I188A counted along it
T4 sequence (Q9NZQ7 19-238 P43A): as the sequence (Q9NZQ7 19-238 M36A) above, with A18M, P25A counted along it
T18 sequence (Q9NZQ7 19-238 G110A): as the sequence (Q9NZQ7 19-238 M36A) above, with A18M, G92A counted along it
T6 sequence (Q9NZQ7 19-238 T37A): as the sequence (Q9NZQ7 19-238 M36A) above, with A18M, T19A counted along it
T14 sequence (Q9NZQ7 19-238 L214A): as the sequence (Q9NZQ7 19-238 M36A) above, with A18M, L196A counted along it
T21 sequence (Q9NZQ7 19-238 G33A): as the sequence (Q9NZQ7 19-238 M36A) above, with G15A, A18M counted along it
T9 sequence (Q9NZQ7 19-238 M59A): as the sequence (Q9NZQ7 19-238 M36A) above, with A18M, M41A counted along it
T13 sequence (Q9NZQ7 19-238 G95A): as the sequence (Q9NZQ7 19-238 M36A) above, with A18M, G77A counted along it
T15 sequence (Q9NZQ7 19-238 M115A): as the sequence (Q9NZQ7 19-238 M36A) above, with A18M, M97A counted along it
T11 sequence (Q9NZQ7 19-238 T102A): as the sequence (Q9NZQ7 19-238 M36A) above, with A18M, T84A counted along it
T2 sequence (Q9NZQ7 19-238 R125A): as the sequence (Q9NZQ7 19-238 M36A) above, with A18M, R107A counted along it
T10 sequence (Q9NZQ7 19-238 K25A): as the sequence (Q9NZQ7 19-238 M36A) above, with K7A, A18M counted along it
T22 sequence (Q9NZQ7 19-238 Y81A): as the sequence (Q9NZQ7 19-238 M36A) above, with A18M, Y63A counted along it
T16 sequence (Q9NZQ7 19-238 T181A): as the sequence (Q9NZQ7 19-238 M36A) above, with A18M, T163A counted along it
T3 sequence (Q9NZQ7 19-238 F191A): as the sequence (Q9NZQ7 19-238 M36A) above, with A18M, F173A counted along it
T5 sequence (Q9NZQ7 19-238 E31A): as the sequence (Q9NZQ7 19-238 M36A) above, with E13A, A18M counted along it
T19 sequence (Q9NZQ7 19-238 L74A): as the sequence (Q9NZQ7 19-238 M36A) above, with A18M, L56A counted along it

B1: 1.14.4 (antibody, V domains shown)
VH: EVQLLESGGGLVQPGGSLRLSCAASGFTFSSYAMSWVRQAPGKGLEWVSGISGSGGFTYYADSVKGRFTISRDNSKNTLYLQMNSLRAEDTAVYYCAKPPRGYNYGPFDYWGQGTLVTVSS
VL: SYVLTQPPSVSVAPGQTARITCGGNNIGSKSVHWYQQKPGQAPVLVVYDDSDRPSGIPERFSGSNSGNTATLTISRVEAGDEADYYCQVWDSSSDHVVFGGGTKLTVL
notes: Fully human monoclonal antibody with a human constant region of IgG4 isotype
Regarding B1, the binding result in [1] was “no binding”. In addition, the fold change in experiment [2] turned out to be 0.959 fold; in experiment [3] it was 0.897 fold; in experiment [4], 0.834 fold; in experiment [5], 0.908 fold; in experiment [6], 0.569 fold; in experiment [7], 0.876 fold. Moreover, the fold change is 0.979 fold in experiment [8]; 1.01 fold in experiment [9]; 0.857 fold in [10]; 0.887 fold in experiment [11]; 0.563 fold in experiment [12]; 0.668 fold in experiment [13]. For the same molecule, the fold change was found to be 0.958 fold in experiment [14]; 1.02 fold in [15]; 0.947 fold in [16]; 1.04 fold in experiment [17]; 0.632 fold in experiment [18]; 1.02 fold in experiment [19]. The results for the fold change in experiment [20], in experiment [21] and in experiment [22] were 0.87 fold, 0.807 fold and 0.692 fold, respectively.
